Measurements taken from publication PMC9083827.
Several values for one entry are separate records, joined by “and”; a condition that tells them apart may be missing. Equal values may be shown once.

Target: TraB_(31-110) (plasmid pIP501 (originally isolated from Streptococcus agalactiae, mainly found in Enterococci))
Assay: cross-linking; 10 µg TraB_(31-110) in 50 µl with 0/0.001/0.01/0.05/0.1% glutaraldehyde in 50 mM Bicine, 150 mM NaCl, 1 mM DTT, 20 min at room temperature; Tween-20 micelles; SDS-PAGE

Substance: TraB_(31-110) (domain or fragment)
- stoichiometry N: 2 and 4
